Measured values as given in US20250355001A1, “METHOD FOR DETECTING A TAU PROTEIN FRAGMENT IN A SAMPLE” (GTINVENT LIMITED, priority 2022, published 2025).
Several values for one entry are separate records, joined by “and”; a condition that tells them apart may be missing. Equal entries are not always repeated.

Columns and labels:
[1] = biological target: T1, hT40 (T441, SEQ ID NO: 1) (Homo sapiens, UniProt P10636); assay: Biacore X100 SPR kinetics of scAbs for hT40; type: binding; details: Table 23; scAb captured, T441 (hT40) analyte; 1:1 model
T1 construct: Full length tau (hT40)
Procedure, shortened: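 Captured scAb on anti-HuCk CM5 surface (flow cell 1 as reference) in HBS-EP+, capture set for theoretical RMax 100 RU; hT40 injected multi-cycle (0.15625–100 nM) or single-cycle (6.25–100 nM), 120 s association, 420 s dissociation, glycine pH 2.0 regeneration. Kinetics and affinity from 1:1 binding model fit.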

[2] = system: tau fragments in plasma of WT, L1 and L66 mice; assay: Capture ELISA on transgenic mouse plasma; details: Line66 transgenic model
Protocol: Plasma samples from WT, L1, L66+/− and L66+/+ of various ages (1.5-9 months) were taken as described. Mice were terminally anaesthetized using an overdose of sodium pentobarbital and blood was collected through cardiac puncture through a Plastipak syringe pre-rinsed with heparinised saline heparin (10 U/ml) (Heparin sodium salt; Sigma-Aldrich) and transferred into a plastic vial containing lithium heparin anticoagulant (Sarstedt Ltd.) Blood samples, kept on ice for no more than 30 minutes, were centrifuged to obtain plasma at 2000× g for 5 minutes at 6° C. Plasma samples were stored at −20° C.
For mouse plasma capture ELISA, 100 μL capture mAb was coated to the bottom of a black nunc 96 well ‘maxisorp’ plate at 2.5 μg/ml and incubated for 1 hour at 37° C. After washing and blocking as normal, several known standard solutions were set up in triplicate starting at 20 ng/ml of the desired protein before double diluted in the remaining wells. Mouse samples were added to wells in duplicate with a blank in between each sample group. Line1 plasma was diluted 1:10 before addition to plate to account for its high concentration while other samples were diluted 1:2 to account for potential matrix effects. […] The ELISA was developed using SuperSignal ELISA Femto Substrate (Thermo Scientific) and total luminescence was read on Clariostar Plus plate reader (BMG Labtech). […]

htau40 = biological target: T2, htau40 (Homo sapiens, UniProt P10636); assay: Biacore X100 SPR kinetics of anti-tau mAbs on immobilised htau40; type: binding; details: Table 27; mAb format, immobilised htau40
T2 construct: Full length tau (hT40)
Procedure, shortened: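 Htau40 amine-coupled to CM5 chip (~250 RU, pH 4.0 immobilisation), reference flow cell subtracted; mAb injected at 0.78–25 nM in HBS-EP+, 120 s association, 600 s dissociation, glycine pH 1.5 regeneration. Kinetic and affinity constants from 1:1 binding model fit.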

[3] = system: hT40, dGA, dGAE and truncated tau fragments; assay: Binding ELISA / epitope mapping of anti-tau scAbs with truncated tau proteins and 13mer peptides; parameters: species or system human
Procedure, shortened: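 Plates coated with 1 μg/ml tau protein, or 5 μg/ml streptavidin then 1 μg/ml biotinylated 13mer peptide; blocked with 2% MPBS. scAbs added at a starting concentration and double-diluted. Bound scAb detected with HRP anti-human C kappa and read as absorbance.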

aggregated dGAE = aggregated dGAE (Homo sapiens, UniProt P10636); assay: Capture ELISA ranking mAbs for capture of dGAE aggregates; type: binding; details: capture mAb 1 μg/ml; 800 nM aggregated dGAE
Protocol: The aggregation cascade of natively unfolded tau into insoluble filaments is a defining pathological feature of AD. Therefore, it is logical to target aggregated tau filaments for both therapeutic and diagnostic purposes. The following experiment was performed to assess the ability of our dGA mAb panel to bind aggregated dGAE using a capture ELISA method. Aggregates were prepared by incubating 100 μM dGAE and 10 mM dTT for 24 h at 37° C. with shaking at 700 RPM. The following day, dGAE aggregates were centrifuged at 17,000×g for 20 min and the supernatant was removed. The remaining pellet was washed with 10 mM phosphate buffer and centrifuged as above. Washing was repeated a further two times to remove any remaining dGAE monomer. The dGAE pellet was resuspended in 100 μl of 10 mM phosphate buffer. (Using a separate capture ELISA based quantification, we have worked out the efficiency of our dGAE aggregation as 80%)
Following washing, 800 nM aggregated dGAE was added to the designated wells, double diluted across the plate and incubated for 1 h at RT. The plate was washed again and 1 μg/ml S1G2 scAb was added as detection antibody and incubated for 1 h at RT. To the row where S1G2 mAb was used for capture, […] s1D12 scAb was added as […] instead of S1G2. The assay was developed using HRP labelled HuCK as described previously.

T1 sequence (P10636 1-441 isoform P10636-8): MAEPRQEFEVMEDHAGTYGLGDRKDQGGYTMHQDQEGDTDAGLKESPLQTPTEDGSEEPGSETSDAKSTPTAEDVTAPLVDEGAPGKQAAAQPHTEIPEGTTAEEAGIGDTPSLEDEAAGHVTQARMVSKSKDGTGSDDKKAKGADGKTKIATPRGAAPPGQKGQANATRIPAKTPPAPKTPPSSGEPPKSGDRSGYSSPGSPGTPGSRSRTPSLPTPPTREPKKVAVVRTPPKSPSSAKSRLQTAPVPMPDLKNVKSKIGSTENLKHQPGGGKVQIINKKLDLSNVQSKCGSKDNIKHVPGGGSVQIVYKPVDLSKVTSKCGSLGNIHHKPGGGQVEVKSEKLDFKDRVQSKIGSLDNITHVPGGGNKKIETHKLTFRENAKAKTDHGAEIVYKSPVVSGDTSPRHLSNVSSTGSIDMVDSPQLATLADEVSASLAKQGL
T2 sequence (P10636 1-441 isoform P10636-8): as above
Sequence of aggregated dGAE (P10636 614-708): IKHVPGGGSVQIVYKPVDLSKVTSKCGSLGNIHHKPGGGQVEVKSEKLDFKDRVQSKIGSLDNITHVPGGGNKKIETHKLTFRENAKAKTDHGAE

B1: CB7: human-specific N-terminal anti-tau clone, Table 10; SEQ ID NO: 364 (protein)
scFv: QVQLQESGPSLVKPSQTLSLTCTVSGFSLTNYRVGWVRQAPGKALEWVSNIRSGGTTWYNPALKSRLSITADTSKSQVSLSLSSVTTEDTAVYYCARDSSGDLYAYDYWGPGLLVTVSSEGKSSGASGESKVDDQAVLTQPSSVSRSLGQSVSMTCSGSSSNVGYGNYMAWFQQVPGSAPKLLIYGATSRASGVPDRFSGSRSGNTATLTISSLQAEDEADYYCASYDSTSGGVFGSGTRLTVLG
modifications: CB7 amino acid sequence
[1]
  ka: 133400 M⁻¹ s⁻¹
  kd: 0.0006936 s⁻¹
[2]
  cross reaction with endogenous mouse tau: does not cross react with endogenous mouse tau protein
htau40
  ka: 2.568e+06 M⁻¹ s⁻¹
  kd: 0.009451 s⁻¹
[3]; Table 17, 'C' group scAbs, binding ELISA
  Tau proteins/fragments with positive scAb reactivity: hT40, 1-49, 1-155, 1-319
[3]; Table 17, 'C' group scAbs, incl. 13mer peptides
  Shortest region bound on hT40: 13-25
[3]; Table 26 summary, top scAbs, residues of hT40
  Epitope: 13-25
[3]; Table 28 (LoD table), residues of hT40
  Detection scAb (Epitope): CB7 (13-25)
[3]; amino acid residues of hT40
  binding region on hT40: 13-25 and 13-26
[3]; residue numbers of SEQ ID NO: 1 (hT40), CDR Tables 1-11
  Epitope: 13-25
[3]; second Table 26, own antibodies
  Binding region hT40: (Binding region hT40 13-25)

B2: E2E8 mAb: E2E8 reformatted; heavy chain SEQ ID NO: 493, light chain 494 (antibody)
heavy: QVQLQESGPSLVKPSQTLSLTCTVSGFSLTDRGVAWVRQAPGKALEWVGTMRSGGTIDYNPALKSRLSITRDTSKSQVFLSLSSVTTEDMAMYYCARGYLSGDRYAWGRGLLVTVSSAKTTAPSVYPLAPVCGDTTGSSVTLGCLVKGYFPEPVTLTWNSGSLSSGVHTFPAVLQSDLYTLSSSVTVTSSTWPSQSITCNVAHPASSTKVDKKIEPRGPTIKPCPPCKCPAPNLLGGPSVFIFPPKIKDVLMISLSPIVTCVVVDVSEDDPDVQISWFVNNVEVHTAQTQTHREDYNSTLRVVSALPIQHQDWMSGKEFKCKVNNKDLPAPIERTISKPKGSVRAPQVYVLPPPEEEMTKKQVTLTCMVTDFMPEDIYVEWTNNGKTELNYKNTEPVLDSDGSYFMYSKLRVEKKNWVERNSYSCSVVHEGLHNHHTTKSFSRTPGK
light: QAVLTQPSSVSKSLGQSVSIACSGSRSDIGYGNYVSWFQQIPGSAPKLLIYDTNTRASGVPDRFSGARSGNTATLTINSLQAEDEADYYCANIDSSRSHLFGSGTRLTVLGGQPKSSPSVTLFPPSSEELETNKATLVCTITDFYPGVVTVDWKVDGTPVTQGMETTQPSKQSNNKYMASSYLTLTARAWERHSSYSCQVTHEGHTVEKSLSRADCS
modifications: E2E8 mAB Heavy Chain; E2E8 mAB Light Chain
Aggregated dGAE
  ability to capture dGAE aggregates: most efficient at capturing aggregated dGAE
